These results are taken from publication PMC5882628, “Development of a Cell-Based Assay to Assess Binding of the proNGF Prodomain to Sortilin” (Cellular and Molecular Neurobiology, 2017).

Entries after “also recorded” stand apart in the source; their conditions may differ.

Data set [1] addresses T1, sortilin (Homo sapiens, UniProt Q99523).
T1 construct: They were transfected with plasmids either encoding wild type sortilin, or sortilin with a mutation that renders it endocytosis deficient; expressed in transfected cells; host or cells: HEK 293 cells, transient transfection (lipofectamine)
T1 sequence (Q99523 78-831): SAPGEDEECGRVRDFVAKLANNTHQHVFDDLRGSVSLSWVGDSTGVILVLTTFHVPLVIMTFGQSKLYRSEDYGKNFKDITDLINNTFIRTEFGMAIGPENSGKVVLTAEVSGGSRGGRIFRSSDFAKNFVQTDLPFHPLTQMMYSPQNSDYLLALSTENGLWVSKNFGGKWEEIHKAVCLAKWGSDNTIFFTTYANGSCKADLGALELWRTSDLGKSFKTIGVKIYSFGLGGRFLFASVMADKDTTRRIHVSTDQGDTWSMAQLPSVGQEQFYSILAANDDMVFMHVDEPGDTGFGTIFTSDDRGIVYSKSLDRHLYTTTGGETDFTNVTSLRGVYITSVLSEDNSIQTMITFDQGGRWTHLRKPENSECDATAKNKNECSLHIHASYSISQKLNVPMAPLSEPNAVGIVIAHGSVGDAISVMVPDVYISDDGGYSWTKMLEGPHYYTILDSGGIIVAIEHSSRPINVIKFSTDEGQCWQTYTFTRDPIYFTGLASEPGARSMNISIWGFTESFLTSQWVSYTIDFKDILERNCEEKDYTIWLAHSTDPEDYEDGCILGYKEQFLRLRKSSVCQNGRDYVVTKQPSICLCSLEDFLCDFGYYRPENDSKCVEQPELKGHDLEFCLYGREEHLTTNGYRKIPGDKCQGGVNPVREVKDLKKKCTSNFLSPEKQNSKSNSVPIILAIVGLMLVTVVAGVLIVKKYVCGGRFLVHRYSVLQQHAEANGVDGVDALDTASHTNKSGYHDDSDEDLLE
As to the kind of experiment: Cell-based assay of GSTpro (NGF prodomain) binding/uptake, wt sortilin-transfected HEK293 cells, sortilin/GST double stain, high content imaging, with detergent. The settings on record: for signal and assay window, GSTpro compared to proNGF (in words): Fig. 3u, sortilin-transfected cells. The method, then:
HEK 293 cells were grown in DMEM with 10% fetal bovine serum. They were transfected with plasmids either encoding wild type sortilin, or sortilin with a mutation that renders it endocytosis deficient, or an empty control vector according to manufacturer’s instructions using 20 µg lipofectamine (Thermo Fischer Scientific) with 8 µg DNA on […] per 6 cm, poly-lysine coated dish. The cells were initially plated into 24-well dishes after transfection. That intermediate step rendered more uniform cell numbers in the 96-well dishes that were used to run the actual assay. 24 h later, cells were split into black opaque-walled, clear-bottom 96 well dishes at 42000 cells in 80 µl medium/well. […] 1 h after that treatment, the medium was replaced with 80 µl medium containing the same antibody, compounds or peptides included in the preincubation medium, plus recombinant GSTpro or proNGF (either purified in-house from recombinant HEK cells or derived from an E.coli expression system at either 0 nM (negative control), or 50 nM, or, in a few instances at 5 or 10 nM. The respective concentrations are indicated in the figures 45 min after adding GSTpro or proNGF, cells were washed twice with prewarmed PBS and fixed in 4% PFA for 20 min at approximately 20 °C.
(§1) The fixed cells were washed with PBS for 15 min, followed by two 15 min washes with PBS with 0.1% Triton X-100. […] Wells to be evaluated for blocking of the sortilin-GSTpro interaction by antibodies were only stained with an antibody against the pro domain of proNGF in 10% FBS at a dilution of 1:1500 (Millipore (N-term) clone EPI318Y, Rabbit Monoclonal Antibody Catalog Number: #04-1142). […]
(§2) The following day, wells were washed 3 × 15 min with PBS/0.1% Triton X-100. […] Cellular fluorescence was quantified using an array scanner and the “Neuronal Profiler” Bioapplication (Thermo Fisher Scientific) as described below.
Sortilin-GSTpro interaction was also assessed using HEK cell derived cell lines stably expressing sortilin. […]
Images from 96 well dishes were automatically recorded with a Cellomics ArrayScan VTI HCS Reader (Thermo Scientific) using a 10× microscope objective and the build-in standard autofocus method. Fifteen 1024 × 1024 images in 4 channels (Channel 1 and 2: Filter XF5–Hoechst, to detect nuclei and all cells; Channel 3: XF53-Texas Red to detect, e.g., sortilin-positive cells; Channel 4: Filter XF93 – FITC, to detect cells positive, e.g., for the proNGF pro domain) were recorded per 96 well.
The images were analyzed with the Cellomics assay algorithm NeuronalProfiling.V3.5.

Data set [2] addresses T1, sortilin. As to the kind of experiment: GSTpro binding to wt sortilin-transfected HEK293 cells, staining without detergent permeabilization. Format: cell-based. The conditions noted are these: versus staining with detergent, Fig. 6a vs 6b. The protocol: (§3) HEK 293 cells were grown in DMEM with 10% fetal bovine serum. They were transfected with plasmids either encoding wild type sortilin, or sortilin with a mutation that renders it endocytosis deficient, or an empty control vector according to manufacturer’s instructions using 20 µg lipofectamine (Thermo Fischer Scientific) with 8 µg DNA on […] per 6 cm, poly-lysine coated dish. The cells were initially plated into 24-well dishes after transfection. That intermediate step rendered more uniform cell numbers in the 96-well dishes that were used to run the actual assay. 24 h later, cells were split into black opaque-walled, clear-bottom 96 well dishes at 42000 cells in 80 µl medium/well. […]
as §1, §2

Data set [3] deals with internalization-mutant sortilin. As to the kind of experiment: GSTpro binding to HEK293 cells expressing internalization-mutant sortilin. Type of data set: cell-based, human. The settings on record: compared with wild type sortilin. The protocol:
as §3, §1, §2

The nature of data set [4]: Precipitation and sticking to culture dishes; reagent stability. Format: physicochemical. The settings on record: GSTpro versus proNGF. An excerpt:
This behavior led to more diffuse staining compared to GSTpro. […] Given the complications driven by the biophysical properties of proNGF, we pursued GSTpro as a source of the pro binding domain.
Due to reasons of stability of the proNGF protein and the specificity of binding, we recommend use of GSTpro in the assay, rather than recombinant proNGF. […] Although not formally tested by us, there may have been inconsistencies in the batches of proNGF protein used in the studies. As extracellular fluorescence could increase false positive cells by automated detection, proNGF was less reliable as a reagent in our assay (not shown). Both GSTpro and proNGF compete for binding to the sortilin receptor, it is likely that their binding sites are similar or at least overlap. Detection with GSTpro was more specific than with proNGF. […] The assay has the potential to use a tenfold lower concentration of GSTpro (5 nM, cf. Fig. 6v).

B1: GSTpro: fusion of Glutathione S-transferase (GST) merged at the C-terminal of GST to the pro part (19–121) of human proNGF (protein)
chain: EPHSESNVPAGHTIPQAHWTKLQHSLDTALRRARSAPAAAIAARVAGQTRNITVDPRLFKKRRLRSPRVLFSTQPPREAADTQDLDFEVGGAAPFNRTHRSKR
modifications: left off: GST, N-terminal, kept
notes: fusion of Glutathione S-transferase (GST) merged at the C-terminal of GST to the pro part (19–121) of human proNGF
With B1, the “signal and assay window, GSTpro compared to proNGF (in words)” value in data set [1] was “substantially larger compared to proNGF”; in data set [1] (listed as GST-pro), “larger signal and assay window”. Moreover, the “GSTpro signal, sortilin-positive versus sortilin-negative (or control-transfected) cells (in words)” value in data set [1] (Figs. 3, 4b, 6, 7, 8) is given as “highly enhanced GSTpro uptake or binding; also recorded: several fold higher GSTpro signal in sortilin-positive cells”. The “reduction of GSTpro signal without permeabilization” value in data set [2] (cells expressing sortilin below the set threshold) is “less than half reduced”; in data set [2] (sortilin-positive cells) it was “almost fourfold reduced; also recorded: much lower GSTpro signal”. Also, the “GSTpro signal in internalization-mutant versus wt sortilin cells (in words)” value in data set [3] is “stronger GSTpro signal than wild type sortilin; also recorded: slightly higher signal”. Also, in data set [4], the “stability compared to proNGF (in words)” value is recorded as “more stable than proNGF”.
